Test results reported in PMC5818064.

Biological target: RBD–GFP11 (Rho-binding domain of Rhotekin fused to GFP β-strand 11) (UniProt Q8C6B2)
Test: split reporter (BiFC, NanoBiT); tripartite split-GFP; HEK_GFP1-9 cells stably expressing GFP1-9, transiently co-transfected with GFP10 and GFP11 fusions (1:1); fixed, double immunostaining with anti-GFP10 and anti-GFP11; flow cytometry, mean GFP fluorescence in the GFP10+ GFP11+ gate

UniProt Q8C6B2, sequence (Q8C6B2 whole entry, the tested form may be a part): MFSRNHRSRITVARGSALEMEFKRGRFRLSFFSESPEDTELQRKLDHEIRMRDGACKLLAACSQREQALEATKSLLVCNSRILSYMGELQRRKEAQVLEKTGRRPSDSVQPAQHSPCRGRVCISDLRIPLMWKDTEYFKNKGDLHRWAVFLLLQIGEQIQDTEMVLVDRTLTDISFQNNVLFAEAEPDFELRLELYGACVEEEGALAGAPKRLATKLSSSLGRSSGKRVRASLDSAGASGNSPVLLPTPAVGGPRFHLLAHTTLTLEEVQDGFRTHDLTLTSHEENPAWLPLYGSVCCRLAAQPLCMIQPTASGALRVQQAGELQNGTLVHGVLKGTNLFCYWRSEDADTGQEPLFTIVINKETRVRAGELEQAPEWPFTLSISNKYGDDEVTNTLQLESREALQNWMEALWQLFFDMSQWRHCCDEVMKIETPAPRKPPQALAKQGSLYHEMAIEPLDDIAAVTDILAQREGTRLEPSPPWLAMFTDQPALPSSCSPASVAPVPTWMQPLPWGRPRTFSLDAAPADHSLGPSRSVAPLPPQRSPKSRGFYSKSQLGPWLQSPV

Row | Substance | fold change of mean GFP fluorescence against the dominant-negative mutant
1 | GFP10–RhoA L63 (constitutively active RhoA mutant fused to GFP β-strand 10) (from UniProt P61586 1-193) (natural protein) | 5 fold
2 | GFP10–RhoB L63 (constitutively active RhoB mutant fused to GFP β-strand 10) (from UniProt P62745 1-196) (natural protein) | 5 fold
